Laboratory results: publication PMC12006300 (Nature Communications, 2025)

Target: T1, Recombinant human PDZD8 (1, 28–)—FLAG (human, UniProt Q8NEN9 1-1154, (1, 28–), ∆TM)
T1 sequence (looked up): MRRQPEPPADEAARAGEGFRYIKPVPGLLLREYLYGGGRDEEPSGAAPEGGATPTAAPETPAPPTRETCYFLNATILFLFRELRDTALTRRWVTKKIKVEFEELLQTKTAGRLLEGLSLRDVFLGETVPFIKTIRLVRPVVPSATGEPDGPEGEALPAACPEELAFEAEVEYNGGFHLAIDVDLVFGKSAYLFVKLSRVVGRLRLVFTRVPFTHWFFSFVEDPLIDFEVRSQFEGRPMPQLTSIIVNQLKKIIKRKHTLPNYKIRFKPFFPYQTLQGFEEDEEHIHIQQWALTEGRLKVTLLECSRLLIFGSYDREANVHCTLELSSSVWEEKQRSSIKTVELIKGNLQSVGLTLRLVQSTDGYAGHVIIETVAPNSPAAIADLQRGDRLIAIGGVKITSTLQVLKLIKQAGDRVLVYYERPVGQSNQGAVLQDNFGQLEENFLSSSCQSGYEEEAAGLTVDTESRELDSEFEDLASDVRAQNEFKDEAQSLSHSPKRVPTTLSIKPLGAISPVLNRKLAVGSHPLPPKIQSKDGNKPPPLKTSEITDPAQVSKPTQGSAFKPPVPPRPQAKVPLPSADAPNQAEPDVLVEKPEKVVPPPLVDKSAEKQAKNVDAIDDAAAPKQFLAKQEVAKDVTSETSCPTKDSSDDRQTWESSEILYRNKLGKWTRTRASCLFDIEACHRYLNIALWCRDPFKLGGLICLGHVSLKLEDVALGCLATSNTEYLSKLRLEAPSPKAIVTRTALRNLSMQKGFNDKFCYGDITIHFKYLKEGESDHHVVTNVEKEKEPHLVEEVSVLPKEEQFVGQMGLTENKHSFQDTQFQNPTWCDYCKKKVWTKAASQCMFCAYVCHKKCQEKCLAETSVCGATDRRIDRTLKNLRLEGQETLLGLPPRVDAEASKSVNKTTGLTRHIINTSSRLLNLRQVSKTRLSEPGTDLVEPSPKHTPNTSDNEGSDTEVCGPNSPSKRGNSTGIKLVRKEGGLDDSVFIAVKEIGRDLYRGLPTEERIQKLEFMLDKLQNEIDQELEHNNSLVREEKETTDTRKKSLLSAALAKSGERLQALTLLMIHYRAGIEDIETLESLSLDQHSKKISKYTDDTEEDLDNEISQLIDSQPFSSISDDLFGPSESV
Experiment: SPR

Kd: 142 µM
B1: Recombinant human FKBP8 (1–380)—Histag (domain or fragment, UniProt Q14318 1-380, looked up)
chain: MASCAEPSEPSAPLPAGVPPLEDFEVLDGVEDAEGEEEEEEEEEEEDDLSELPPLEDMGQPPAEEAEQPGALAREFLAAMEPEPAPAPAPEEWLDILGNGLLRKKTLVPGPPGSSRPVKGQVVTVHLQTSLENGTRVQEEPELVFTLGDCDVIQALDLSVPLMDVGETAMVTADSKYCYGPQGRSPYIPPHAALCLEVTLKTAVDGPDLEMLTGQERVALANRKRECGNAHYQRADFVLAANSYDLAIKAITSSAKVDMTFEEEAQLLQLKVKCLNNLAASQLKLDHYRAALRSCSLVLEHQPDNIKALFRKGKVLAQQGEYSEAIPILRAALKLEPSNKTIHAELSKLVKKHAAQRSTETALYRKMLGNPSRLPAKCPG
